US10800847

Key:
[1] = target: HLA-B*2705 (B27) single antigen on Luminex beads (human); assay: Luminex single antigen, iBeads (#6), IVIg 1:8
[2] = target: HLA-B*2708 (B27) single antigen on Luminex beads (human); assay: Luminex single antigen, iBeads (#6), IVIg 1:8
[3] = target: HLA-B*3501 (B35) single antigen on Luminex beads (human); assay: Luminex single antigen, iBeads (#6), IVIg 1:8
[4] = target: HLA-B*3701 (B37) single antigen on Luminex beads (human); assay: Luminex single antigen, iBeads (#6), IVIg 1:8
[5] = target: HLA-B*3801 (B38) single antigen on Luminex beads (human); assay: Luminex single antigen, iBeads (#6), IVIg 1:8
[6] = target: HLA-B*3901 (B39) single antigen on Luminex beads (human); assay: Luminex single antigen, iBeads (#6), IVIg 1:8
[7] = target: HLA-B*4001 (B60) single antigen on Luminex beads (human); assay: Luminex single antigen, iBeads (#6), IVIg 1:8
[8] = target: HLA-B*4002 (B61) single antigen on Luminex beads (human); assay: Luminex single antigen, iBeads (#6), IVIg 1:8
[9] = target: HLA-B*4006 (B61) single antigen on Luminex beads (human); assay: Luminex single antigen, iBeads (#6), IVIg 1:8
[10] = target: HLA-B*4101 (B41) single antigen on Luminex beads (human); assay: Luminex single antigen, iBeads (#6), IVIg 1:8
[11] = target: HLA-B*4201 (B42) single antigen on Luminex beads (human); assay: Luminex single antigen, iBeads (#6), IVIg 1:8
[12] = target: HLA-B*4402 (B44) single antigen on Luminex beads (human); assay: Luminex single antigen, iBeads (#6), IVIg 1:8
[13] = target: HLA-B*4403 (B44) single antigen on Luminex beads (human); assay: Luminex single antigen, iBeads (#6), IVIg 1:8
[14] = target: HLA-B*4501 (B45) single antigen on Luminex beads (human); assay: Luminex single antigen, iBeads (#6), IVIg 1:8
[15] = target: HLA-B*4601 (B46) single antigen on Luminex beads (human); assay: Luminex single antigen, iBeads (#6), IVIg 1:8
[16] = target: Albumin on negative control beads (serum albumin, HSA/BSA) (human or bovine); assay: Luminex single antigen beads, iBeads (#6), 1:8
[17] = target: HLA-A*0301 (A3) on single antigen beads (human) (UniProt P04439); assay: Luminex single antigen beads, iBeads (#6), 1:8
[18] = target: Albumin on negative control beads (serum albumin, HSA/BSA) (human or bovine); assay: Luminex, iBead MFI against regular bead MFI, 1:8
[19] = target: HLA-A*0301 (A3) on single antigen beads (human) (UniProt P04439); assay: Luminex, iBead MFI against regular bead MFI, 1:8
[20] = target: HLA-B*2708 (B27) single antigen on Luminex beads (human); assay: Luminex single antigen, regular beads (#7), IVIg 1:8
[21] = target: HLA-B*3501 (B35) single antigen on Luminex beads (human); assay: as above
[22] = target: HLA-B*3701 (B37) single antigen on Luminex beads (human); assay: as above
[23] = target: HLA-B*3801 (B38) single antigen on Luminex beads (human); assay: as above
[24] = target: HLA-B*3901 (B39) single antigen on Luminex beads (human); assay: as above
[25] = target: HLA-B*4002 (B61) single antigen on Luminex beads (human); assay: as above
[26] = target: HLA-B*4006 (B61) single antigen on Luminex beads (human); assay: as above
[27] = target: HLA-B*4101 (B41) single antigen on Luminex beads (human); assay: as above
[28] = target: HLA-B*4402 (B44) single antigen on Luminex beads (human); assay: as above
[29] = target: HLA-B*4403 (B44) single antigen on Luminex beads (human); assay: as above
[30] = target: HLA-B*4501 (B45) single antigen on Luminex beads (human); assay: as above
[31] = target: HLA-B*4601 (B46) single antigen on Luminex beads (human); assay: as above
[32] = target: HLA-B*4701 (B47) single antigen on Luminex beads (human); assay: as above
[33] = target: Albumin on negative control beads (serum albumin, HSA/BSA) (human or bovine); assay: Luminex single antigen beads, regular beads (#7), 1:8
[34] = target: HLA-A*0301 (A3) on single antigen beads (human) (UniProt P04439); assay: as above
[35] = target: HLA-B*2705 (B27) single antigen on Luminex beads (human); assay: Luminex single antigen, iBead vs regular bead, IVIg 1:8
[36] = target: HLA-B*2708 (B27) single antigen on Luminex beads (human); assay: as above
[37] = target: HLA-B*3501 (B35) single antigen on Luminex beads (human); assay: as above
[38] = target: HLA-B*3701 (B37) single antigen on Luminex beads (human); assay: as above
[39] = target: HLA-B*3801 (B38) single antigen on Luminex beads (human); assay: as above
[40] = target: HLA-B*3901 (B39) single antigen on Luminex beads (human); assay: as above
[41] = target: HLA-B*4001 (B60) single antigen on Luminex beads (human); assay: as above
[42] = target: HLA-B*4002 (B61) single antigen on Luminex beads (human); assay: as above
[43] = target: HLA-B*4006 (B61) single antigen on Luminex beads (human); assay: as above
[44] = target: HLA-B*4101 (B41) single antigen on Luminex beads (human); assay: as above
[45] = target: HLA-B*4201 (B42) single antigen on Luminex beads (human); assay: as above
[46] = target: HLA-B*4402 (B44) single antigen on Luminex beads (human); assay: as above
[47] = target: HLA-B*4403 (B44) single antigen on Luminex beads (human); assay: as above
[48] = target: HLA-B*4501 (B45) single antigen on Luminex beads (human); assay: as above
[49] = target: HLA-B*4601 (B46) single antigen on Luminex beads (human); assay: as above
[50] = target: HLA-B*4701 (B47) single antigen on Luminex beads (human); assay: as above
HLA-B*3501 (B35) (human) = assay: Luminex single-antigen beads (iBeads), culture supernatant
HLA-B*3701 (B37) (human) = assay: as above
HLA-B*3801 (B38) (human) = assay: as above
HLA-B*3901 (B39) (human) = assay: as above
HLA-B*4001 (B60) (human) = assay: as above
HLA-B*4002 (B61) (human) = assay: as above
HLA-B*4006 (B61) (human) = assay: as above
HLA-B*4101 (B41) (human) = assay: as above
HLA-B*4201 (B42) (human) = assay: as above
HLA-B*4402 (B44) (human) = assay: as above
HLA-B*4403 (B44) (human) = assay: as above
HLA-B*4501 (B45) (human) = assay: as above
HLA-B*4601 (B46) (human) = assay: as above
HLA-B*4701 (B47) (human) = assay: as above
HLA-B*4801 (B48) (human) = assay: as above
HLA-B*4901 (B49) (human) = assay: as above
HLA-B*5001 (B50) (human) = assay: as above
HLA-B*5101 (B51) (human) = assay: as above
[51] = target: HLA-A*0101 (A1) single antigen bead (human); assay: Luminex single antigen bead assay (IBEADS), culture supernatant
[52] = target: HLA-A*0201 (A2) single antigen bead (human); assay: as above
[53] = target: HLA-A*0203 (A2) single antigen bead (human); assay: as above
[54] = target: HLA-A*0206 (A2) single antigen bead (human); assay: as above
[55] = target: HLA-A*0301 (A3) single antigen bead (human); assay: as above
[56] = target: HLA-A*1101 (A11) single antigen bead (human); assay: as above
[57] = target: HLA-A*1102 (A11) single antigen bead (human); assay: as above
[58] = target: HLA-A*2301 (A23) single antigen bead (human); assay: as above
[59] = target: HLA-A*2402 (A24) single antigen bead (human); assay: as above
[60] = target: HLA-A*2403 (A24) single antigen bead (human); assay: as above
[61] = target: HLA-A*2501 (A25) single antigen bead (human); assay: as above
[62] = target: HLA-A*2601 (A26) single antigen bead (human); assay: as above
[63] = target: HLA-A*2901 (A29) single antigen bead (human); assay: as above
[64] = target: HLA-A*2902 (A29) single antigen bead (human); assay: as above
[65] = target: HLA-A*3001 (A30) single antigen bead (human); assay: as above
[66] = target: HLA-A*3002 (A30) single antigen bead (human); assay: as above
[67] = target: Negative control beads coated with serum albumin (HSA/BSA) (human or bovine); assay: as above

Gamunex-C Lot NKLK1 (IVIg) (antibody)
MFI [1]: 0 MFI | MFI [2]: 0 MFI | MFI [3]: 577 MFI | MFI [4]: 612 MFI | MFI [5]: 0 MFI | MFI [6]: 0 MFI | MFI [7]: 93 MFI | MFI [8]: 0 MFI | MFI [9]: 421 MFI | MFI [10]: 0 MFI | MFI [11]: 0 MFI | MFI [12]: 786 MFI | MFI [13]: 836 MFI | MFI [14]: 399 MFI | MFI [15]: 851 MFI | MFI [16]: 7800 MFI | MFI [17]: -211 MFI | Difference % (iBead against regular bead) [18]: -24% | Difference % (iBead against regular bead) [19]: -151% | MFI [20]: 0 MFI | MFI [21]: 1480 MFI | MFI [22]: 4790 MFI | MFI [23]: 1260 MFI | MFI [24]: 0 MFI | MFI [25]: 0 MFI | MFI [26]: 4340 MFI | MFI [27]: 605 MFI | MFI [28]: 5310 MFI | MFI [29]: 1210 MFI | MFI [30]: 562 MFI | MFI [31]: 2450 MFI | MFI [32]: 2030 MFI | MFI [33]: 10300 MFI | MFI [34]: 410 MFI | Difference % (iBead against regular bead MFI) [35]: -100% | Difference % (iBead against regular bead MFI) [36]: 0% | Difference % (iBead against regular bead MFI) [37]: -61% | Difference % (iBead against regular bead MFI) [38]: -87% | Difference % (iBead against regular bead MFI) [39]: -100% | Difference % (iBead against regular bead MFI) [40]: 0% | Difference % (iBead against regular bead MFI) [41]: -93% | Difference % (iBead against regular bead MFI) [42]: 0% | Difference % (iBead against regular bead MFI) [43]: -90% | Difference % (iBead against regular bead MFI) [44]: -100% | Difference % (iBead against regular bead MFI) [45]: -100% | Difference % (iBead against regular bead MFI) [46]: -85% | Difference % (iBead against regular bead MFI) [47]: -31% | Difference % (iBead against regular bead MFI) [48]: -29% | Difference % (iBead against regular bead MFI) [49]: -65% | Difference % (iBead against regular bead MFI) [50]: -39%

TFL Anti-HLA-E Mab PTG-006 (antibody)
MFI (HLA-B*3501 (B35) (human)): 60 MFI | MFI (HLA-B*3701 (B37) (human)): 43 MFI | MFI (HLA-B*3801 (B38) (human)): 24 MFI | MFI (HLA-B*3901 (B39) (human)): 21 MFI | MFI (HLA-B*4001 (B60) (human)): 28 MFI | MFI (HLA-B*4002 (B61) (human)): 33 MFI | MFI (HLA-B*4006 (B61) (human)): 41 MFI | MFI (HLA-B*4101 (B41) (human)): 89 MFI | MFI (HLA-B*4201 (B42) (human)): 32 MFI | MFI (HLA-B*4402 (B44) (human)): 32 MFI | MFI (HLA-B*4403 (B44) (human)): 18 MFI | MFI (HLA-B*4501 (B45) (human)): 18 MFI | MFI (HLA-B*4601 (B46) (human)): 23 MFI | MFI (HLA-B*4701 (B47) (human)): 38 MFI | MFI (HLA-B*4801 (B48) (human)): 21 MFI | MFI (HLA-B*4901 (B49) (human)): 71 MFI | MFI (HLA-B*5001 (B50) (human)): 67 MFI | MFI (HLA-B*5101 (B51) (human)): 45 MFI | MFI [51]: 28 MFI | MFI [52]: 31 MFI | MFI [53]: 31 MFI | MFI [54]: 27 MFI | MFI [55]: 36 MFI | MFI [56]: 51 MFI | MFI [57]: 60 MFI | MFI [58]: 36 MFI | MFI [59]: 42 MFI | MFI [60]: 53 MFI | MFI [61]: 24 MFI | MFI [62]: 57 MFI | MFI [63]: 115 MFI | MFI [64]: 23 MFI | MFI [65]: 45 MFI | MFI [66]: 69 MFI | MFI [67]: 6 MFI
